B1: FLAG-ADD1 WT (adducin-1), transiently expressed in HEK293 cells [not stated] / GST-TPX2 aa 120–370 fusion protein [human] (parent)
chain 1: MNGDSRAAVVTSPPPTTAPHKERYFDRVDENNPEYLRERNMAPDLRQDFNMMEQKKRVSMILQSPAFCEELESMIQEQFKKGKNPTGLLALQQIADFMTTNVPNVYPAAPQGGMAALNMSLGMVTPVNDLRGSDSIAYDKGEKLLRCKLAAFYRLADLFGWSQLIYNHITTRVNSEQEHFLIVPFGLLYSEVTASSLVKINLQGDIVDRGSTNLGVNQAGFTLHSAIYAARPDVKCVVHIHTPAGAAVSAMKCGLLPISPEALSLGEVAYHDYHGILVDEEEKVLIQKNLGPKSKVLILRNHGLVSVGESVEEAFYYIHNLVVACEIQVRTLASAGGPDNLVLLNPEKYKAKSRSPGSPVGEGTGSPPKWQIGEQEFEALMRMLDNLGYRTGYPYRYPALREKSKKYSDVEVPASVTGYSFASDGDSGTCSPLRHSFQKQQREKTRWLNSGRGDEASEEGQNGSSPKSKTKWTKEDGHRTSTSAVPNLFVPLNTNPKEVQEMRNKIREQNLQDIKTAGPQSQVLCGVVMDRSLVQGELVTASKAIIEKEYQPHVIVSTTGPNPFTTLTDRELEEYRREVERKQKGSEENLDEAREQKEKSPPDQPAVPHPPPSTPIKLEEDLVPEPTTGDDSDAATFKPTLPDLSPDEPSEALGFPMLEKEEEAHRPPSPTEAPTEASPEPAPDPAPVAEEAAPSAVEEGAAADPGSDGSPGKSPSKKKKKFRTPSFLKKSKKKSDS
chain 2: RSLRLSAQKDLEQKEKHHVKMKAKRCATPVIIDEILPSKKMKVSNNKKKPEEEGSAHQDTAEKNASSPEKAKGRHTVPCMPPAKQKFLKSTEEQELEKSMKMQQEVVEMRKKNEEFKKLALAGIGQPVKKSVSQVTKSVDFHFRTDERIKQHPKNQEEYKEVNFTSELRKHPSSPARVTKGCTIVKPFNLSQGKKRTFDETVSTYVPLAQQVEDFHKRTPNRYHLRSKKDDINLLPSKSSVTKICRDPQTP

Variants of: B1
Assay: GST pull-down (immunoblot quantification)
Settings: with GST-TPX2 aa 120–370 fusion protein [human]; lysates from HEK293 cells; five independent experiments; means ± s.d.; parent: 100; read off a plot

Question: chain 1 S726A was tested. Which percent of parent did it give?
Answer: Its percent of parent is 40%.

From publication PMC6073210, “Adducin‐1 is essential for spindle pole integrity through its interaction with TPX2” (EMBO Reports, 2018)
